From patent publication EP1096011A1, “Microbiological production method for alpha-l-aspartyl-l-phenylalanine” (Holland Sweetener Company V.o.F., priority 1999, dated 2001) come the findings set out here.

Broadly, the Km is the concentration of substrate that gives half-maximal velocity.

Experiment in all cases: ATP-PPi exchange reaction (amino acid activation)
The subject of data set [1] is Asp-Phe-His6, hybrid Asp-Phe dipeptide synthetase (Asp module of Bacillus subtilis ATCC 21332 srfA-B, Phe minimal module of Bacillus brevis ATCC 8185 tycA) …. Type of data set: biochemical, Bacillus subtilis ATCC 21332 / Bacillus brevis ATCC 8185. Conditions: 37°C. The procedure:
(§1) Specificity of amino acid activation was determined indirectly by incorporation of labelled ^32PPi into ATP during reverse reaction (Lee, S.G. & Lipmann, F.; Tyrocidine synthetase system; Methods Enzymol. 43, 1975, p.585-602). For this purpose 20 pmol of each enzyme was incubated with 1 mM amino acid, 1 mM ATP, 0,1 mM PPi, 50 mM HEPES, 100 mM NaCl and 10 mM MgCl2 and 2 mCi ^32PPi at 37°C in a total volume of 100 µL. Reactions were quenched after 10 min by adding 500 µL of a solution containing 100 mM NaPPi, 560 mM perchloric acid and 1,2% (w/v) active charcoal. The mixture was centrifuged at 13000 rpm for 1 min. The pellet was washed and resuspended twice with 1 mL H2O.
(§2) Incorporation of labelled ATP (adsorbed to the charcoal) was detected by measuring radioactivity of the precipitate. […] KM values for Asp and ATP were determined to be 3,5 mM and 0,9 mM respectively. KM values for Leu and ATP were detected to be 0,3 mM and 0,6 mM, respectively.
(§3) The KM value for Phe was determined to be about 50 µM.

The subject of data set [2] is Asp-Phe-TE-His6, hybrid Asp-Phe dipeptide synthetase with integrated srfA-C thiolation and TE domain, His6-tagged. Type of data set: biochemical, Bacillus subtilis ATCC 21332 / Bacillus brevis ATCC 8185. Conditions: 37°C. How it is done:
as §1, §2, §3

Substrate in data set [3]: N[C@@H](CC(=O)O)C(=O)O
Type of data set: biochemical, Bacillus subtilis ATCC 21332. To be noted: other: ATP-PPi exchange, 37°C. The procedure: as §1, §2

Substrate in data set [4]: Nc1ncnc2c1ncn2[C@@H]1O[C@H](COP(=O)(O)OP(=O)(O)OP(=O)(O)O)[C@@H](O)[C@H]1O
Type of data set: biochemical, Bacillus subtilis ATCC 21332. To be noted: other: ATP-PPi exchange, 37°C. How it is done: as §1, §2

Substrate in data set [5]: CC(C)C[C@H](N)C(=O)O
Type of data set: biochemical, Bacillus subtilis ATCC 21332. Conditions: other: ATP-PPi exchange, 37°C. The procedure:
as §1, §2

Consider `N[C@@H](Cc1ccccc1)C(=O)O` [Phe, L-phenylalanine], for which the Km in data set [1] and in data set [2] was roughly 50 µM each time.

B1: Asp-Leu-His6, Asp-Leu dimodular peptide synthetase from Bacillus subtilis ATCC 21332 surfactin synthetase (srfA-B), His6-tagged (Bacillus subtilis subsp. … (protein)
chain: PNVRLSDVDLLSSAETAALLEERHMTQITEATFAALFEKQAQQTPDHSAVKAGGNLLTYRELDEQANQLAHHLRAQGAGNEDIVAIVMDRSAEVMVSILGVMKAGAAFLPIDPDTPEERIRYSLEDSGAKFAVVNERNMTAIGQYEGIIVSLDDGKWRNESKERPSSISGSRNLAYVIYTSGTTGKPKGVQIEHRNLTNYVSWFSEEAGLTENDKTVLLSSYAFDLGYTSMFPVLLGGGELHIVQKETYTAPDEIAHYIKEHGITYIKLTPSLFHTIVNTASFAKDANFESLRLIVLGGEKIIPTDVIAFRKMYGHTEFINHYGPTEATIGAIAGRVDLYEPDAFAKRPTIGRPIANAGALVLNEALKLVPPGASGQLYITGQGLARGYLNRPQLTAERFVENPYSPGSLMYKTGDVVRRLSDGTLAFIGRADDQVKIRGYRIEPKEIETVMLSLSGIQEAVVLAVSEGGLQELCAYYTSDQDIEKAELRYQLSLTLPSHMIPAFFVQVDAIPLTANGKTDRNALPKPNAAQSGGKALAAPETALEESLCRIWQKTLGIEAIGIDDNFFDLGGHSLKGMMLIANIQAELEKSVPLKALFEQPTVRQLAAYMEASAVSGGHQVLKPADKQDMYPLSSAQKRMYVLNQLDRQTISYNMPSVLLMEGELDISRLRDSLNQLVNRHESLRTSFMEANGEPVQRIIEKAEVDLHVFEAKEDEADQKIKEFIRPFDLNDAPLIRAALLRIEAKKHLLLLDMHHIIADGVSRGIFVKELALLYKGEQLPEPTLHYKDFAVWQNEAEQKERMKEHEAYWMSVLSGELPELDLPLDYARPPVQSFKGDTIRFRTGSETAKAVEKLLAETGTTLHMVLHAVFHVFLSKISGQRDIVIGSVTAGRTNADVQDMPGMFVNTLALRMEAKEQQTFAELLELAKQTNLSALEHQEYPFEDLVNQLDLPRDMSRNPLFNVMVTTENPDKEQLTLQNLSISPYEAHQGTSKFDLTLGGFTDENGIGLQLEYATDLFAKETAEKWSEYVLRLLKAVADNPNQPLSSLLLVTETEKQALLEAWKGKALPVPTDKTVHQLFEETVQRHKDRPAVTYNGQSWTYGELNAKANRLARILMDCGISPDDRVGVLTKPSLEMSAAVLGVLKAGAAFVPIDPDYPDQRIEYILQDSGAKLLLKQEGISVPDSYTGDVILLDGSRTILSLPLDENDEGNPETAVTAENLAYMIYTSGTTGQPKGVMVEHHALVNLCFWHHDAFSMTAEDRSAKYAGFGFDASIWEMFPTWTIGAELHVIDEAIRLDIVRLNDYFETNGVTITFLPTQLAEQFMELENTSLRVLLTGGDKLKRAVKKPYTLVNNYGPTENTVVATSAEIHPEEGSLSIGRAIANTRVYILGEGNQVQPEGVAGELCVAGRGLARGYLNREDETAKRFVADPFVPGERMYRTGDLVKWVNGGIEYIGRIDQQVKVRGYRIELSEIEVQLAQLSEVQDAAVTAVKDKGGNTAIAAYVTPETADIEALKSTLKETLPDYMIPAFWVTLNELPVTANGKVDRKALPEPDIEAGSGEYKAPTTDMEELLAGIWQDVLGMSEVGVTDNFFSLGGDSIKGIQMASRLNQHGWKLEMKDLFQHPTIEELTQYVERAE
Consider B1, for which the Km worked out at 3500 µM in data set [3], 900 µM in data set [4] (ATP value paired with Asp (Asp activation)), 600 µM in data set [4] (ATP value paired with Leu (Leu activation)) and 300 µM in data set [5].
